These results are taken from patent US20060183678A1 (Novartis, published 2006).

The target in one assay is T1, rat NogoA-623-640 (rat).
T1 construct: Free peptide used for preincubation with 11C7; also called immunogenic peptide
T1 peptide: SYDSIKLEPENPPPYEEA
Description: peptide competition of cell surface staining of living rat oligodendrocytes. As to the method: Immunocytochemistry: Optic nerve oligodendrocytes are prepared as described (Schwab, Caroni, 1988, Neuron). Three to five day-old cultures grown on poly-L-lysine coated coverslips are washed twice with PBS, fixed in 4% (w/v) paraformaldehyde (PFA), 5% (w/v) sucrose in PBS for 15 min at room temperature (RT) and non-specific binding is blocked with 10% (v/v) FCS. Cells were then incubated with mouse 11C7 (1:100). Secondary antibodies are goat-anti-mouse TRITC (Jackson ImmunoResearch Laboratories). For cell surface staining, two day-old rat optic nerve cultures are incubated with monoclonal antibody in medium for 25 min at RT. Secondary alkaline phosphatase conjugated antibodies (Milan Analytica, Lausanne) are used at 1:7,500 in 0.1 M maleic acid with 1% (w/v) blocking reagent (1 hr). The cultures are washed twice with maleic acid buffer, once with alkaline phosphatase buffer (0.1 M Tris-HCl pH 9.5, 0.1 M NaCl, 5 mM MgCl₂) and the staining is developed for 3 hrs at room temperature with 0.175 mg/ml BCIP (Sigma) and 0.338 mg/ml NBT (Sigma) in alkaline phosphatase buffer.
Cell surface staining is present on all major and small processes and on the cell body. Thus, the Nogo-A specific part of the molecule recognised by mouse 11C7 mAb is exposed to the extracellular space on the plasma membrane of oligodendrocytes.

For the next assay, the target named is T2, Nogo-66 (rat, UniProt Q9JK11 1019-1083).
T2 construct: also called Nogo-66 fragment
T2 sequence: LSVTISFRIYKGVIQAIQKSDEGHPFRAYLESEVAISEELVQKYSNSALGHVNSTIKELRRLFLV
Description: ELISA, fragment coated on plate. As for the experimental part:
(§1) Greiner 96 well PS plates (#655161) are coated with 0.4-2 ug/ml Nogo protein fragments in PBS (100ul/well) covered and incubated 4 hours at room temperature. Plates are flicked and refilled with 200 ul/well blocking buffer (PBS+2% BSA), covered and incubated. 1 h at RT or overnight at 4° C., then washed 4 times with water and PBS. Different concentrations of mouse 11C7 mAb or 11C7 Fab are diluted in PBS+2% BSA (100 u/well), and incubated 2 h at RT or overnight at 4° C. Wash step is repeated and Goat anti-mouse IgG conjugated with horse radish peroxidase (HRP) at a dilution of 1:5000 (ICN #55550) in PBS/0.1% BSA/0.1% Nonidet 40 (100 uVwell) is added and incubated. 2h at RT or overnight at 4° C. and wash step is repeated. HRP reaction is started by adding 100 uvwell BM blue POD (Roche #1484281) and incubafed in the dark at RT for 15 minutes. H2SO4 50 ul/well 1 M is added to stop HRP substrate reaction and the optical density is determinated using a microplate reader (Packard Spectra Count) set to 450 nm.
Background: In an ELISA, binding on a coated surface is turned into a signal by an enzyme label.

In a further assay the target is T3, rat NiG-D6 (rat, UniProt Q9JK11 763-975).
T3 construct: pET28 construct from bacteria
T3 sequence: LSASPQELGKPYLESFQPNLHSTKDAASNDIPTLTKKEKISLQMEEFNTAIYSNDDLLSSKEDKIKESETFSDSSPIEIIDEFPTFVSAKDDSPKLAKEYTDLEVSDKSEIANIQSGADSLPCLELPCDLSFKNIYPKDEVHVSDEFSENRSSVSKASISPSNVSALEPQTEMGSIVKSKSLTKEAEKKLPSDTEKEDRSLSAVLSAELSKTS
Briefly: ELISA, fragment coated on plate. As to the method:
as §1

For assay [1], the target named is T4, human NiG (human, UniProt Q9NQC3 186-1004).
T4 construct: Expressed in E. coli from pET28a-hNiG; also called hNiG; recombinant human NIG; not shown: N-terminal His- and T7-tag from pET28a
T4 sequence: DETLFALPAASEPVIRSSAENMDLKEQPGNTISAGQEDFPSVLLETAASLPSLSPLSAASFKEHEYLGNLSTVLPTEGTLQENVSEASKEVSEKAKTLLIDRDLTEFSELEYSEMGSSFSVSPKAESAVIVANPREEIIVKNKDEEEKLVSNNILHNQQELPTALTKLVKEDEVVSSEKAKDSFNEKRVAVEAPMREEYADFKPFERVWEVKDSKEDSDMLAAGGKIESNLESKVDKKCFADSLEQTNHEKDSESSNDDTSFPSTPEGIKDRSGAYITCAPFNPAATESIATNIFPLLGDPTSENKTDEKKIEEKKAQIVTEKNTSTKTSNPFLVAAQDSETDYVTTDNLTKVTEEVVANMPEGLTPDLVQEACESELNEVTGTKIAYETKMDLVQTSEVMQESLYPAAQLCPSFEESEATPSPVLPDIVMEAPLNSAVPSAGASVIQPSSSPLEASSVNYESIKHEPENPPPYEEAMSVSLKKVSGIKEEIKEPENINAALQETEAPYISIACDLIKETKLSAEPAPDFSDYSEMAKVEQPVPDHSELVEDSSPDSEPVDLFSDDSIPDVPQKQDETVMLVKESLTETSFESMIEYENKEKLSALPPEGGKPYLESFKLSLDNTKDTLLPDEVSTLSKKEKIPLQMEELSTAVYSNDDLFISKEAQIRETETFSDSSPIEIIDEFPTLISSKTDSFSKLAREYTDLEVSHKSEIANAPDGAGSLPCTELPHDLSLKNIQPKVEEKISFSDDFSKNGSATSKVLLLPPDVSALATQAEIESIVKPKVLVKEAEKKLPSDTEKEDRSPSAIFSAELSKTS
Briefly: SPR (BIAcore 2000), NiG amine-coupled on CM5 chip, antibody injected. As for the experimental part: (§2) The affinity of the mouse 11C7 mAb and of the 11C7 Fab are measured by surface plasmon resonance (SPR) using a BIAcore 2000 optical biosensor (Biacore, Uppsala, Sweden) according to the manufacture's instructions (see FIG. 2). Recombinant human, mouse, and rat NIG are covalently attached to three separate flow cells of a CM5 sensor chip using amine-coupling chemistry. Briefly; the carboxymethlyladed dextran matrix is activated by injecting 35 ul of a solution containing 0.025M NHS and 0.1M EDC. […] The deactivation of the remaining NHS-ester group is performed by injection of 35 ul of 1M ethanolamine hydrochloride (pH 8.5). The surface of the sensor chip is regenerated by injecting 5 ul 0.1M HCl. […] After each injection the sensor chip surface is regenerated with the injection of 10 ul 0.1M HCl without loss of binding activity on the surface. The kinetic constants, ka and kd and the affinity constants KA and KD are evaluated using the BIAevaluations 3.0 software supplied by the manufacturer.
(§3) Affinity measurement in BIAcore: The kinietc and the affinity binding constants of the mouse 11C7 mAb and the 11C7 derived monovalent Fab fragment to recombinat NogoA are measured in real time using surface plasmon resonance (SPR) technology (Biacore). For this analysis recombinant human, mouse and rat NIGs are coupled on three independent sensor chip surfaces and different concentrations of the antibodies are injected. Kinetic parameters of the binding interactions are derived from the sensorgrams by non-linear curve fitting. […] The lower affinity of the Fab fragment results from a decrease of both kinetic constants, association and dissociation (ka, kd).
A general note: In SPR one partner is held on a chip, and binding of the other changes the refractive index at the surface.

The next assay addresses T5, mouse NiG (mouse, UniProt Q99P72 188-974, limits assumed).
T5 construct: domain: NiG-exon3; also called mNiG-exon3; mouse NiG-exon3
T5 sequence (looked up): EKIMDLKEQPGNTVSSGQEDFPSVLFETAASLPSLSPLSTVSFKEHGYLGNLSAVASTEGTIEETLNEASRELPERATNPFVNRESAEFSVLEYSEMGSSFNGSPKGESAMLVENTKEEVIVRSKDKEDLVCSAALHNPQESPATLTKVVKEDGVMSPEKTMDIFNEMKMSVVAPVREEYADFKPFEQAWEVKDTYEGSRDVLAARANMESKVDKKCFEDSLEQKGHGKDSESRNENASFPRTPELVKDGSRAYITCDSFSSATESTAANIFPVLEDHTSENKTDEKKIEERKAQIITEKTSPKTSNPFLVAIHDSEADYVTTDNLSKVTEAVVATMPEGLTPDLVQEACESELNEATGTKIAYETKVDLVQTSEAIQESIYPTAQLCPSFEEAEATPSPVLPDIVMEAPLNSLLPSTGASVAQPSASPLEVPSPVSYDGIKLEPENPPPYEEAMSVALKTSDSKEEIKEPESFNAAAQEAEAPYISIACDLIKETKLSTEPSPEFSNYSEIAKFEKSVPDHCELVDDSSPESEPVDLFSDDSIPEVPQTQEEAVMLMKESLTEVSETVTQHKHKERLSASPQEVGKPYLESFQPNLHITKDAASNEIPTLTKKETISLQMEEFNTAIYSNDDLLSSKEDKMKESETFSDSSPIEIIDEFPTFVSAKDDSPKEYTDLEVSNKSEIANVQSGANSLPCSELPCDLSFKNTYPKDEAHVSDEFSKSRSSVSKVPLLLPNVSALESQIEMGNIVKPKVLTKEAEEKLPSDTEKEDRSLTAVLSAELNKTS
Described as above. As for the experimental part:
as §2, §3

In another assay the target is T6, rat NiG (rat, UniProt Q9JK11 174-979).
T6 construct: also called recombinant rat NIG
T6 sequence: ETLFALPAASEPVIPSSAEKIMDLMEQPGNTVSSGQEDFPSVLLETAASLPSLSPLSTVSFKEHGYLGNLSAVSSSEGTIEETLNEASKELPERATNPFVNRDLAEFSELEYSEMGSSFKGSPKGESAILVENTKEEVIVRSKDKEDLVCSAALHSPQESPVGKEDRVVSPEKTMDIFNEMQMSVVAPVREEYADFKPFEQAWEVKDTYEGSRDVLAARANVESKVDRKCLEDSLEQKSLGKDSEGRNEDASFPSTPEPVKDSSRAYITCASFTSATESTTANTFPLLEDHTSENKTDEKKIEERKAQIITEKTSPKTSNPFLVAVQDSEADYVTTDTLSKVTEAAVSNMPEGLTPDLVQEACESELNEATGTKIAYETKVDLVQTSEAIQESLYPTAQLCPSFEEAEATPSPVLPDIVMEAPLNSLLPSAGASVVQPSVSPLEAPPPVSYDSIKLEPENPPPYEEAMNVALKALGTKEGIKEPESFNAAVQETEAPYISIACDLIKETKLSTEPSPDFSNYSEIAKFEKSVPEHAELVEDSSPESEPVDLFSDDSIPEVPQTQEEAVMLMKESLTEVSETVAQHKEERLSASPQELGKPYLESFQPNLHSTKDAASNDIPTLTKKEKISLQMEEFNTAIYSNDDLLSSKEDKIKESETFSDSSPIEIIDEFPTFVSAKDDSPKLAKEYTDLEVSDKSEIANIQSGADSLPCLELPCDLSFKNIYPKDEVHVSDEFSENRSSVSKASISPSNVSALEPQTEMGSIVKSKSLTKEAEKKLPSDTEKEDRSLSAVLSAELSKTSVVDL
Described as above. As for the experimental part: as §2, §3

In assay [2] the target is T4, human NiG. Description: SPR (BIAcore 2000), NiG amine-coupled on CM5 chip, Fab injected. As to the method: as §2, §3

B1: mouse 11C7 mAb (antibody, V domains shown)
VH: EVKLLESGGGLVQPGGSLKLSCVVSGFDFRRNWMSWVRQAPGKGLEWIGEINPDSSKINYTPSLKDKFIISRDNAKNTLYLQVSTVRSEDTALYYCVRPVWMYAMDYWGQGTSVTVSS
VL: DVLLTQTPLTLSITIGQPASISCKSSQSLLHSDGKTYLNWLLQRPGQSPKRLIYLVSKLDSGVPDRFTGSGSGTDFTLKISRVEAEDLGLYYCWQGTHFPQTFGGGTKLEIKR
notes: also called mouse 11C7-IgG1; mAb 11C7
Broadly, the Kd is the free concentration of one partner at which half of the binding sites on the other are occupied at equilibrium, for simple one-to-one binding. Low values mean tighter binding, high ones weaker binding. By koff is commonly meant a measure of how fast the partners let go of each other. A higher koff goes with fast dissociation. The kon is a measure of how fast the partners come together. B1: the values for the binding result with rat NogoA-623-640, in the assay with Nogo-66 and with rat NiG-D6 were “binds”, “no binding (tested: 0.02 to 2.5 nM)” and “no binding (tested: 0.02 to 2.5 nM)”, respectively. Moreover, the Ka with human NiG [1] was found to be 9.73e+09 M⁻¹; in the assay with mouse NiG it was 5.2e+09 M⁻¹; with rat NiG, 2.25e+09 M⁻¹. In addition, the Kd was found to be 0.103 nM with human NiG [1], 0.192 nM with mouse NiG and 0.444 nM with rat NiG. In addition, the koff with human NiG [1] worked out at 4.6e-05 s⁻¹; with mouse NiG it was 0.000106 s⁻¹; with rat NiG, 0.000389 s⁻¹. Besides, the kon in the assay with human NiG [1] came out at 448000 M⁻¹ s⁻¹; with mouse NiG it was 552000 M⁻¹ s⁻¹; with rat NiG, 876000 M⁻¹ s⁻¹.

B2: 11C7 Fab (Fab, V domains shown)
VH: EVKLLESGGGLVQPGGSLKLSCVVSGFDFRRNWMSWVRQAPGKGLEWIGEINPDSSKINYTPSLKDKFIISRDNAKNTLYLQVSTVRSEDTALYYCVRPVWMYAMDYWGQGTSVTVSS
VL: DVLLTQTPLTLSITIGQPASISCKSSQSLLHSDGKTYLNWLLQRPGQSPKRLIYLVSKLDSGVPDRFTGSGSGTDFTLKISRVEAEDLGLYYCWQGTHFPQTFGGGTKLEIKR
notes: also called 11C7 derived monovalent Fab fragment; Fab monovalent fragment
B2: in the assay with human NiG [2], the Ka stood at 1.4e+08 M⁻¹, the Kd is 7.14 nM, the koff stood at 0.000528 s⁻¹ and the kon amounted to 72900 M⁻¹ s⁻¹. Further, in the assay with Nogo-66, the binding result was “no binding (tested: 0.025 to 25 nM)”. For the same molecule, in the assay with rat NiG-D6, the binding result is given as “no binding (tested: 0.025 to 25 nM)”.
